We go through six molecules from patent publication US20250136718A1 (MABWELL THERAPEUTICS, published 2025).

Assay [1] addresses T1, matriptase-3 (TMPRSS7) over-expressed in HEK293T cells (human, UniProt Q7RTY8 1-843).
T1 sequence: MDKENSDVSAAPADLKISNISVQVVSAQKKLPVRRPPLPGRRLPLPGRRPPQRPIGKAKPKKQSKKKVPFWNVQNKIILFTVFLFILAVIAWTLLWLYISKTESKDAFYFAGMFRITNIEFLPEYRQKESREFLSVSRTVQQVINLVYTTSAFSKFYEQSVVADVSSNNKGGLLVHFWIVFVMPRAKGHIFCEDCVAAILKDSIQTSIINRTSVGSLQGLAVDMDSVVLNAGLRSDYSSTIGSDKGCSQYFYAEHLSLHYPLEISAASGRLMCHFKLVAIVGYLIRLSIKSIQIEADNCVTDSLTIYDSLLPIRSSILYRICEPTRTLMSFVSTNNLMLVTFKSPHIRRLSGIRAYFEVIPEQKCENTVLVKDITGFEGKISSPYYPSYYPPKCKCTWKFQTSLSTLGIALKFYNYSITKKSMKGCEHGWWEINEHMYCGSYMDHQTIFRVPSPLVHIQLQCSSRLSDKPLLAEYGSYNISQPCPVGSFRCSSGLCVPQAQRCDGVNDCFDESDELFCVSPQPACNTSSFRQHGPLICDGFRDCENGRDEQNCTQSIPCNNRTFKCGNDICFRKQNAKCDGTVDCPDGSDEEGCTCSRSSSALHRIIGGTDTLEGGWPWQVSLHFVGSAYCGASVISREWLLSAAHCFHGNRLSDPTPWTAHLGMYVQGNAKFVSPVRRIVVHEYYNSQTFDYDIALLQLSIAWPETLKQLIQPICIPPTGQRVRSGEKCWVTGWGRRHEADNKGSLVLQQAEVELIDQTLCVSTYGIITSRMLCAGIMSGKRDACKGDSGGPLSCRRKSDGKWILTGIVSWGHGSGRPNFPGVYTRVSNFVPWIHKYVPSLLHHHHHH
As to the kind of experiment: FACS on permeabilized HEK293T cells over-expressing matriptase-3 (TMPRSS7). An excerpt: To determine if anti-TMPRSS6 antibodies bind to homologous matriptases, HEK293T cells over-expressing matriptase (ST14) (SEQ ID NO: 100) (FIGS. 5B, 5E, 5H, 5K, 5N, 5Q), and HEK293T cells over-expressing matriptase-3 (TMPRSS7) (SEQ ID NO: 101) (FIGS. 5C, 5F, 5I, 5L, 5O, 5R) were collected (generated in house). HEK293T cells stably expressing human TMPRSS6 (matriptase-2) (SEQ ID NO: 97) (generated by LakePharma Inc as described above, FIGS. 5A, 5D, 5G, 5J, 5M, 5P) were used as a positive control and HEK293T cells (FIGS. 5A-5R) were used as a negative control (as described above). Cells were blocked and permeabilized with dPBS+3% BSA+0.1% Tween-20 before incubation with various anti-TMPRSS6 antibodies diluted in dPBS+3% BSA+0.1% Tween-20. Cells were incubated with anti-TMPRSS6 antibodies and their humanized variants at a concentration of roughly 1 μg/ml for 1 hr. After incubation, cells were washed with dPBS and incubated with goat anti-mouse IgG conjugated with AlexaFluor-488 (Invitrogen, FIGS. 5A-5I) or goat anti-human IgG conjugated with Allophycocyanin (APC) (Jackson Immuno Research, FIGS. 5J-5R) as a 2° antibody. At last, cells were washed with dPBS and re-suspended with dPBS+1 mM EDTA, and then subjected to FACS analysis using a NOVOCYTE® Flow Cytometer. Bound antibody was determined by excitation at 488 nm and measurement of emission (FITC-A) at 530 nm (FIGS. 5A-5I) or by excitation at 640 nm and measurement of emission (APC-A) at 675 nm (FIGS. 5J-5R). Results for these assays are shown in histogram plots in FIGS. 5A-5R.

In a further assay the target is T2, human ecto-TMPRSS6-FLAG (UniProt Q8IU80 77-811).
T2 chain: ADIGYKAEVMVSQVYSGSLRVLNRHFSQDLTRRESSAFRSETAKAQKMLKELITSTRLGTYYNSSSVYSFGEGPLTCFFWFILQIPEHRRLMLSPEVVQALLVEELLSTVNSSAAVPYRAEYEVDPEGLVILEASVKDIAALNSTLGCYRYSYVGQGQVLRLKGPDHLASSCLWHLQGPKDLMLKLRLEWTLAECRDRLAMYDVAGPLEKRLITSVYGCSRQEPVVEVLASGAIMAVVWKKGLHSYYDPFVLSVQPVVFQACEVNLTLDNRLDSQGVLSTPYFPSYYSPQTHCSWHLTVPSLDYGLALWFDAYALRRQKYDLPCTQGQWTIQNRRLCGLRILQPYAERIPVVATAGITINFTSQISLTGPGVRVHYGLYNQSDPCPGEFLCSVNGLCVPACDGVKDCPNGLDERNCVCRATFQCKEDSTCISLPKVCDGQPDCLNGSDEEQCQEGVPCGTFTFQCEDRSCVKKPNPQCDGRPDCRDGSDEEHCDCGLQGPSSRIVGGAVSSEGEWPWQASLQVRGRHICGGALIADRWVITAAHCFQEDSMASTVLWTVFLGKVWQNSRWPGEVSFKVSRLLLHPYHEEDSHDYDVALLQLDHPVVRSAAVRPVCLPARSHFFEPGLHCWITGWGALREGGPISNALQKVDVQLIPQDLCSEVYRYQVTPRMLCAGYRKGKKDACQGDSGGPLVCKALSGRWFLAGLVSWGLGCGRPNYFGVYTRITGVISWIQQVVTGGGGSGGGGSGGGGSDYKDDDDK
Put plainly: BLI (Octet). For orientation: BLI is a label-free optical method that tracks binding on a fibre tip over time.

B1: MWTx-002 anti-TMPRSS6 monoclonal antibody (antibody, mouse IgG2b, kappa, V domains shown)
VH: EVQLQQSGAELVKPGASVKLSCTASGFNIKDYYIHWVKERTEQGLEWFGRIDPEDGESEYAPKFQGKATLTADTSSNTAYLQLSSLTSEDTAVYYCTRGDSMMVTYFDYWGQGTTLTVSS
VL: DIVMTQSHKFMSTSVGDRVSITCKASQDVSTAVAWYQQKPGQSPKLLIYWAFTRHTGVPDRFTSTGSGTDYALTISSVQAEDLALYYCQQHYRSPWTFGGGTKLEIKR
notes: Mouse monoclonal antibody from hybridoma (ATCC PTA-126760)
One may read the Kd as the concentration at which binding is half-saturated. On to B1, for which the binding result in assay [1] was “no binding (tested: roughly 1 µg/ml)”. This molecule had a Kd with human ecto-TMPRSS6-FLAG of 0.82 nM.

B2: MWTx-001 anti-TMPRSS6 monoclonal antibody (antibody, mouse IgG2a, kappa, V domains shown)
VH: QVQLQQPGAELAKPGASVKMSCKASGYTFTSYWITWVKQRPGQDLEWIGNIYPGSGSTYYNEKFKSKATLTVDTSSRTAYMQLSSLTSADSAVYYCAPYDSDYAMDYWGQGTSVTVSS
VL: DIKMTQSPSSMYASLGERVTITCKASQDINNYLSWFQQKPGKSPKTLIYRANRLVDGVPSRVSGSGSGQDYSLTISSLEYEDVGIYFCLQYDEFPLTFGAGTKLELKR
notes: Mouse monoclonal antibody from hybridoma (ATCC PTA-126759)
For the molecule B2, the binding result in assay [1] was “no binding (tested: roughly 1 µg/ml)”. The same molecule showed an equilibrium dissociation constant (Kd) with human ecto-TMPRSS6-FLAG of 0.66 nM.

B3: humanized anti-TMPRSS6 antibody variant hzMWTx-001 Var (antibody, human IgG1, kappa, N297A, V domains shown)
VH: EVQLVQSGAEVKKPGASVKVSCKASGYTFTSYWITWVRQAPGQRLEWIGNIYPGSGSTYYNEKFKSKATITRDTSSRTAYMELSSLRSEDTAVYYCAPYDADYAMDYWGQGTLVTVSS
VL: DIQMTQSPSSLSASVGDRVTITCKASQDISNYLSWFQQKPGKAPKLLIYRANRLVEGVPSRFSGSGSGTDFTLTISSLQPEDFATYFCLQYDEFPLTFGGGTKVEIKR
notes: Human IgG1 / kappa
Take B3: the binding result in assay [1] is reported as “no binding (tested: roughly 1 µg/ml)”. The same molecule showed a Kd with human ecto-TMPRSS6-FLAG of 3.36 nM.

B4: humanized anti-TMPRSS6 antibody variant hzMWTx-002 Var (antibody, human IgG1, kappa, N297A, V domains shown)
VH: EVQLVQSGAEVKKPGASVKVSCKASGFNIKDYYIHWVRQATGQGLEWMGRIDPEDAESEYAPKFQGRVTITADTSTDTAYMELSSLRSEDTAVYYCTRGDSMMVTYFDYWGQGTLVTVSS
VL: DIQMTQSPSSLSASVGDRVTITCKASQDVSTAVAWYQQKPGKAPKLLIYWAFTRHTGVPSRFSGSGSGTDYALTISSLQPEDFATYYCQQHYRSPWTFGGGTKVEIKR
notes: Human IgG1 / kappa
As for B4, the binding result in assay [1] is on record as “no binding (tested: roughly 1 µg/ml)”. For the same molecule, the equilibrium dissociation constant (Kd) with human ecto-TMPRSS6-FLAG worked out at 18.4 nM.

B5: humanized anti-TMPRSS6 antibody variant hzMWTx-003 Var (antibody, human IgG1, kappa, L234A L235A, V domains shown)
VH: QVQLVQSGAEVKKPGASVKVSCKASGFNIEDYYMHWVRQAPGQRLEWMGRIDPEDAETTYSPKFQGRVTIIPDTSANTAYMELSSLRSEDTAVYYCARSIYLDPMDYWGQGTLVTVSS
VL: DIQMTQSPKSLSASVGDRVTITCRASQDVTTALAWYQQKPGQSPKLLIYWATTRHSGVPSRFSGSGSGTDFTLTISSLQPEDFATYYCQQHYSTPYTFGQGTKLEIKR
notes: Human IgG1 / kappa
On to B5, for which the binding result in assay [1] was “no binding (tested: roughly 1 µg/ml)”. The molecule also returned a Kd with human ecto-TMPRSS6-FLAG of 13.7 nM.

B6: MWTx-003 anti-TMPRSS6 monoclonal antibody (antibody, mouse IgG2b, kappa, V domains shown)
VH: EVQLQQSGAELVKPGASVKLSCTASGFNIEDYYIHWVKERTEQGLEWIGRIDPEDGETTYAPQFQGKATIIPDTSSNTAYMQLSSLTSEDAAVYYCARSIYLDPMDYWGQGTSVTVSS
VL: DIVMTQSHKFMSTSVGDRVSITCKASQDVTTAVAWYQQKPGQSPKILIYWATTRHTGVPDRFTGSISGTTYILTISSVQAEDLALYYCQQHYSTPYTFGGGTKLEIKR
notes: Mouse monoclonal antibody from hybridoma (ATCC PTA-126761); The recombinant version r4K12B has the same HC and LC; also called r4K12B; recombinant MWTx-003
On to B6, for which the binding result in assay [1] was “no binding (tested: roughly 1 µg/ml)”. The molecule also had an equilibrium dissociation constant (Kd) with human ecto-TMPRSS6-FLAG of 6.4 nM.
